According to patent US9574185B2, “Cold-adapted protease derived from Pseudoalteromonas arctica PAMC 21717 and uses thereof” (KOREA INSTITUTE OF OCEAN SCIENCE & TECHNOLOGY, priority 2014, dated 2017):

Experiments:
W-Pro21717 [1] = experiment: Activity and stability of W-Pro21717 in the presence of metal ions and surfactants; format: biochemical, Pseudoalteromonas arctica PAMC 21717; details: 1 mM, on ice for 1 hour
Experimental: In order to analyze the influence of metal ions and detergents, W-[…] was allowed to react with a standard buffer containing 1 mM BaCl2, CuSO4, MgSO4, CaCl2, ZnSO4, FePO4, KCl, NaCl, […], sodium linear alkylbenzene sulfonate (LAS) or SDS on ice for 1 hour. In addition, the compatibility of W-[…] with a commercial detergent (LG Household & Health Care, Korea; containing subtilisin Carlsberg) was analyzed using skim milk at temperatures of 10° C. or and 30° C.

W-Pro21717 [2] = experiment: Reactions of W-Pro21717 with various protease inhibitors; format: biochemical, Pseudoalteromonas arctica PAMC 21717; details: for Residual activity (%): residual activity of W-Pro21717, inhibitor 1 mM
Experimental: The reaction solution was centrifuged, and then filtered through a filter having a pore size of 0.45 μm, and the filtrate was mixed and reacted with Folin & Ciocalteu's phenol solution and 500 mM sodium carbonate solution at 37° C. for 30 minutes. Next, the enzymatic activity of the reaction product was measured at 660 nm based on an L-tyrosine standard curve, and an amino acid production of 1 nmole/min/mg at 25° C. was defined as the activity of 1 unit of protease.
The kind of W-Pro21717 was analyzed by reactions with various protease inhibitors.

[3] = Activity of W-Pro21717 as a function of temperature and pH; format: biochemical; details: range 0 to 60° C. tested
Experimental: A temperature optimal for the activity of W-Pro21717 was analyzed in the temperature range of 0 to 60° C., and the optimum pH was analyzed by 1-hour reactions in 50 mM sodium acetate (pH 2.0-6.0), 50 mM potassium phosphate (pH 7.0-10.0) and 50 mM sodium tetraborate (pH 10.0). As a control, 3 μg of the commercial protease Carlsberg subtilisin was used.

[4] = Stability of W-Pro21717 as a function of temperature and pH; format: physicochemical; details: after a reaction at 40° C. for 1 hour
[5] = Substrate specificity of W-Pro21717 with synthetic peptides (p-nitroanilides, 410 nm); format: biochemical; details: 25° C., 10 minutes
Experimental: (§1) The substrate specificity of W-Pro21717 was analyzed using 5 mM of each of the following 7 different synthetic peptides: N-succinyl-Ala-Ala-Val-p-nitroanilide (AAV), N-succinyl-Ala-Ala-Pro-Leu-p-nitroanilide (AAPL), N-succinyl-Ala-Ala-Ala-p-nitroanilide (AAA), N-succinyl-Gly-Gly-Phe-p-nitroanilide (GGF), N-succinyl-Thr-Leu-Val-p-nitroanilide (TLV), N-succinyl-Ala-Ala-Pro-Phe-p-nitroanilide (AAPF), and N-succinyl-Ala-Ala-Val-Ala-p-nitroanilide (AAVA). W-Pro21717 was allowed to react with a standard buffer containing 0.83 mM substrate at 25° C. for 10 minutes, and then the relative activity thereof was measured at 410 nm.

azocasein [6] = experiment: Activity of R-Pro21717 as a function of temperature and pH; format: biochemical
Experimental: (§2) In order to determine a temperature optimal for the activity of the protease, R-Pro21717 was allowed to react at varying temperatures of 0˜70° C., and then analyzed. The stability of R-Pro21717 against temperature was analyzed by allowing R-Pro21717 at varying temperatures of 0˜70° C. for 1 hour, and then allowing R-Pro21717 to react a 0.65% azocasein-containing standard buffer at 30° C. for 30 minutes. As a control enzyme, Carlsberg subtilisin was used.
(§3) In order to determine a pH optimal for the activity of the protease, R-Pro21717-containing buffers having varying pHs were allowed to react at 30° C., and then analyzed. The stability of R-Pro21717 against pH was analyzed by allowing R-Pro21717-containing buffers having varying pHs to react on ice for 1 hour, and then reacting R-Pro21717 in 0.65% azocasein-containing standard buffer at 30° C. for 30 minutes. Carlsberg subtilisin was used as a control enzyme and analyzed at a reaction temperature of 40° C.

azocasein [7] = experiment: Stability of R-Pro21717 against temperature and pH; format: physicochemical; details: 1 hour at varying temperatures, then azocasein 30° C. 30 minutes
Experimental: as §2, §3

[8] = Substrate specificity of R-Pro21717, synthetic peptide (oligo molecule) substrates; format: biochemical
Experimental: as §1
In this Example, the activity of the R-Pro21717 protease in the presence of synthetic peptide substrates was analyzed.

[9] = test system: complex substrates including collagen and keratin; experiment: Substrate specificity of R-Pro21717, macro molecule substrates; format: biochemical

[Ba+2].[Cl-].[Cl-] [Ba^2+, BaCl2]
influence on the activity of W-Pro21717 (W-Pro21717 [1]): did not influence

[Ca+2].[Cl-].[Cl-] [Ca^2+, CaCl2]
influence on the activity of W-Pro21717 (W-Pro21717 [1]): did not influence

O=S(=O)([O-])[O-].[Cu+2] [CuSO4]
increase of the activity of W-Pro21717 (W-Pro21717 [1]): about 60%

O=C(O)CN(CCN(CC(=O)O)CC(=O)O)CC(=O)O [EDTA]
effect of inhibitor on the activity of W-Pro21717 (W-Pro21717 [2]): slightly inhibited | Residual activity (%) (W-Pro21717 [2]): 75 ± 9%

O=P([O-])([O-])[O-].[Fe+3] [Fe^2+, FePO4]
influence on the activity of W-Pro21717 (W-Pro21717 [1]): did not influence

[Cl][Hg][Cl] [HgCl2]
effect of inhibitor on the activity of W-Pro21717 (W-Pro21717 [2]): inhibited | Residual activity (%) (W-Pro21717 [2]): 23 ± 8%

NC(=O)CI [Iodoacetamide]
Residual activity (%) (W-Pro21717 [2]): 94 ± 3%

[Cl-].[K+] [K^+, KCl]
influence on the activity of W-Pro21717 (W-Pro21717 [1]): did not influence

CC(=O)N[C@@H](CC(C)C)C(=O)N[C@@H](CC(C)C)C(=O)N[C@H](C=O)CCCNC(=N)N [Leupeptin]
Residual activity (%) (W-Pro21717 [2]): 98 ± 2%

O=S(=O)([O-])[O-].[Mg+2] [Me, MgSO4]
influence on the activity of W-Pro21717 (W-Pro21717 [1]): did not influence

CCN1C(=O)C=CC1=O [N-Ethylmaleimide]
Residual activity (%) (W-Pro21717 [2]): 107 ± 8%

Cc1ccc(S(=O)(=O)N[C@@H](CCCCN)C(=O)CCl)cc1 [N^a-p-tosyp-L-lysine chloromethyl ketone]
Residual activity (%) (W-Pro21717 [2]): 137 ± 13%

O=S(=O)([O-])[O-].[Na+].[Na+] [Na2SO4]
stability of W-Pro21717 in the presence of standard detergent components (W-Pro21717 [1]): sufficient stability

[Cl-].[Na+] [Na^2+, NaCl]
influence on the activity of W-Pro21717 (W-Pro21717 [1]): did not influence

O=S(=O)(F)Cc1ccccc1 [PMSF]
effect of inhibitor on the activity of W-Pro21717 (W-Pro21717 [2]): inhibited | Residual activity (%) (W-Pro21717 [2]): 40 ± 8%

O=S(=O)([O-])[O-].[Zn+2] [Zn^2+, ZnSO4]
influence on the activity of W-Pro21717 (W-Pro21717 [1]): did not influence

APMA
Residual activity (%) (W-Pro21717 [2]): 131 ± 2%

sodium linear alkylbenzene sulfonate [LAS]
stability of W-Pro21717 in the presence of standard detergent components (W-Pro21717 [1]): sufficient stability

B1: Subtilisin Carlsberg: commercial protease used as control enzyme (protein, UniProt P00780 106-379, looked up)
Subtilisin Carlsberg: AQTVPYGIPLIKADKVQAQGFKGANVKVAVLDTGIQASHPDLNVVGGASFVAGEAYNTDGNGHGTHVAGTVAALDNTTGVLGVAPSVSLYAVKVLNSSGSGSYSGIVSGIEWATTNGMDVINMSLGGASGSTAMKQAVDNAYAKGVVVVAAAGNSGSSGNTNTIGYPAKYDSVIAVGAVDSNSNRASFSSVGAELEVMAPGAGVYSTYPTNTYATLNGTSMASPHVAGAAALILSKHPNLSASQVRNRLSSTATYLGSSFYYGKGLINVEAAAQ
temperature optimal for the activity [3]: 60 °C | decrease in activity [4]: 80% | Relative activity (%) ([5]; substrate AAA): 1.5 ± 0.5% | Relative activity (%) ([5]; substrate AAPF): 100% | Relative activity (%) ([5]; substrate AAPL): 66.5 ± 0.1% | Relative activity (%) ([5]; substrate AAPL, listed as subtilisin Carlsberg): 68.3% | Relative activity (%) ([5]; substrate AAV): 2.6 ± 1.3% | Relative activity (%) ([5]; substrate AAVA): 11.7 ± 2.3% | Relative activity (%) ([5]; substrate GGF): 0% | Relative activity (%) ([5]; substrate TLV): 4.0 ± 3.7% | temperature optimal for the activity (azocasein [6]; 0˜70° C. tested): 60 °C | proteolytic activity at low temperature compared to 60° C. (azocasein [6]; printed 'at or'): did not show proteolytic activity | pH optimum and pH stability compared with R-Pro21717 (azocasein [6]; reaction temperature 40° C.): the same results as those of R-Pro21717 | temperature at which stability / enzymatic activity decreases (azocasein [7]): ≥ 50 °C | Relative activity (%) ([8]; substrate AAA): 10.2 ± 1.9% | Relative activity (%) ([8]; substrate AAPF): 100% | Relative activity (%) ([8]; substrate AAPL): 57.1 ± 10.1% | Relative activity (%) ([8]; substrate AAV): 7.9 ± 3.9% | Relative activity (%) ([8]; substrate AAVA): 12.9 ± 0.6% | Relative activity (%) ([8]; substrate GGF): 16.2 ± 2.1% | Relative activity (%) ([8]; substrate TLV): 11.9 ± 1.1% | Relative activity (%) ([9]; substrate Azocasein): 100% | Relative activity (%) ([9]; substrate Collagen): 6.7 ± 1.2% | Relative activity (%) ([9]; substrate Keratin): 30.2 ± 5.6% | Relative activity (%) ([9]; substrate Skim milk): 67.7 ± 5.7%
